Assay results taken from PMC10397247.

Legend:
Experiment in all cases: two-hybrid library CCmax;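 also: natural log of median RNA to DNA barcode read ratio; higher means stronger binding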
[1] = biological target: T1, APC8516-AA; settings: mean of both orientations
T1 chain: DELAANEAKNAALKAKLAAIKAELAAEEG

[2] = biological target: T2, APC9806-AA; settings: mean of both orientations
T2 chain: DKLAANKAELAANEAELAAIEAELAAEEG

[3] = biological target: T3, APC9182-AA; settings: mean of both orientations
T3 chain: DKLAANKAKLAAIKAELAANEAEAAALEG

[4] = biological target: T4, APC542-AA; settings: mean of both orientations
T4 chain: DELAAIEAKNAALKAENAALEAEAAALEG

[5] = biological target: T5, APC6088-AA; settings: mean of both orientations
T5 chain: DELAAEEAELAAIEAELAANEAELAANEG

[6] = biological target: T6, APC9291-AA; settings: mean of both orientations
T6 chain: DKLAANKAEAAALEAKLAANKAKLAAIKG

[7] = biological target: T7, APC5531-AA; settings: mean of both orientations
T7 chain: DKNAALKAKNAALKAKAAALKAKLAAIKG

[8] = biological target: T8, APC9141-AA; settings: mean of both orientations
T8 chain: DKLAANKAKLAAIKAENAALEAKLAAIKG

[9] = biological target: T9, APC4336-AA
T9 chain: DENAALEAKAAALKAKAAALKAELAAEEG

[10] = biological target: T10, APC8401-AA; settings: mean of both orientations
T10 chain: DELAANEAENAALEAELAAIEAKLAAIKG

[11] = biological target: T11, APC7524-AA; settings: mean of both orientations
T11 chain: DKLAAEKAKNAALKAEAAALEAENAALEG

[12] = biological target: T12, APC5009-AA; settings: mean of both orientations
T12 chain: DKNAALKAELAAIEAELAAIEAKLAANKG

[13] = biological target: T13, 4H3009-AA; settings: mean of both orientations
T13 chain: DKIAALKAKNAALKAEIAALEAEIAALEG

[14] = biological target: T14, 4H2865-AA; settings: mean of both orientations
T14 chain: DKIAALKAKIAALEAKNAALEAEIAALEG

[15] = biological target: T15, 4H2698-AA; settings: mean of both orientations
T15 chain: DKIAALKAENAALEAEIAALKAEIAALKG

[16] = biological target: T16, 4H3395-AA; settings: mean of both orientations
T16 chain: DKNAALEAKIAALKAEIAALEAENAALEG

[17] = biological target: T17, 4H3697-AA; settings: mean of both orientations
T17 chain: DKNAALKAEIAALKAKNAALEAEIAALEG

[18] = biological target: T18, 4H3753-AA; settings: mean of both orientations
T18 chain: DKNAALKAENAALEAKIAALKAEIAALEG

[19] = biological target: T19, 4H3130-AA; settings: mean of both orientations
T19 chain: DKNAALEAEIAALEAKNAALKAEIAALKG

[20] = biological target: T20, 4H3381-AA; settings: mean of both orientations
T20 chain: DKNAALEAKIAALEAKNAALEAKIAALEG

[21] = biological target: T21, 4H891-AA; settings: mean of both orientations
T21 chain: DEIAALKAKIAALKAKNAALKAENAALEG

[22] = biological target: T22, 4H3590-AA; settings: mean of both orientations
T22 chain: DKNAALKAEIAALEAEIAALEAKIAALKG

[23] = biological target: T23, 4H2473-AA
T23 chain: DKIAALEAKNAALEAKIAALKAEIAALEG

[24] = biological target: T24, 4H485-AA; settings: mean of both orientations
T24 chain: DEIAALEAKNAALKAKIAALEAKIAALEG

[25] = biological target: T25, 4H745-AA; settings: mean of both orientations
T25 chain: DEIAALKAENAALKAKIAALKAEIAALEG

[26] = biological target: T26, 4H930-AA; settings: mean of both orientations
T26 chain: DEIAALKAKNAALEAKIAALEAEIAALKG

[27] = biological target: T27, 4H850-AA; settings: mean of both orientations
T27 chain: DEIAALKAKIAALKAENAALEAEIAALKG

[28] = biological target: T28, 4H909-AA; settings: mean of both orientations
T28 chain: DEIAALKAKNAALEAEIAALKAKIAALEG

[29] = biological target: T29, 4H310-AA; settings: mean of both orientations
T29 chain: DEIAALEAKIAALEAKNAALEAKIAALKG

[30] = biological target: T30, 4H458-AA; settings: mean of both orientations
T30 chain: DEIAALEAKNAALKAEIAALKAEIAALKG

[31] = biological target: T31, 4H3165-AA; settings: mean of both orientations
T31 chain: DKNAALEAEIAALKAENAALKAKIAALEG

[32] = biological target: T32, 4H536-AA; settings: mean of both orientations
T32 chain: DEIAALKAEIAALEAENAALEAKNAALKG

[33] = biological target: T33, 4H3410-AA; settings: mean of both orientations
T33 chain: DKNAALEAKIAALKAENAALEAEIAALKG

[34] = biological target: T34, 4H570-AA; settings: mean of both orientations
T34 chain: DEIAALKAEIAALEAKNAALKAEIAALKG

[35] = biological target: T35, 4H797-AA; settings: mean of both orientations
T35 chain: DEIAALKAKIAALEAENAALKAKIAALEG

[36] = biological target: T36, 4H94-AA; settings: mean of both orientations
T36 chain: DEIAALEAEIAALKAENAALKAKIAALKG

[37] = biological target: T37, 4H3865-AA; settings: mean of both orientations
T37 chain: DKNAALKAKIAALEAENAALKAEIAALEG

[38] = biological target: T38, 4H3120-AA; settings: mean of both orientations
T38 chain: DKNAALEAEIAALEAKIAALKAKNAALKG

[39] = biological target: T39, 4H629-AA; settings: mean of both orientations
T39 chain: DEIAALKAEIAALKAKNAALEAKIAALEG

[40] = biological target: T40, 4H2649-AA; settings: mean of both orientations
T40 chain: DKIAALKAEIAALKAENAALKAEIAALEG

[41] = biological target: T41, 4H3016-AA; settings: mean of both orientations
T41 chain: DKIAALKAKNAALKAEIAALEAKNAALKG

[42] = biological target: T42, 4H2725-AA; settings: mean of both orientations
T42 chain: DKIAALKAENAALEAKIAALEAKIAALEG

[43] = biological target: T43, 4H710-AA; settings: mean of both orientations
T43 chain: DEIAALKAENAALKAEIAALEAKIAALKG

B1: APC4336-AA (peptide)
chain: DENAALEAKAAALKAKAAALKAELAAEEG
interaction score [1]: -1.7 | interaction score [2]: -1.53 | interaction score [3]: -1.89 | interaction score [4]: -2.08 | interaction score [5]: -1.93 | interaction score [6]: -2.36 | interaction score [7]: -2.38 | interaction score [8]: -2.48 | interaction score [9]: -3.13 | interaction score [10]: -1.59 | interaction score [11]: -1.86 | interaction score [12]: 1.2

B2: 4H2473-AA (peptide)
chain: DKIAALEAKNAALEAKIAALKAEIAALEG
interaction score [13]: 2.07 | interaction score [14]: -0.67 | interaction score [15]: 1.68 | interaction score [16]: -1.43 | interaction score [17]: -1.54 | interaction score [18]: -0.919 | interaction score [19]: -0.173 | interaction score [20]: -1.15 | interaction score [21]: -1.65 | interaction score [22]: 1.18 | interaction score [23]: 1.2 | interaction score [24]: 0.85 | interaction score [25]: -1.45 | interaction score [26]: -0.124 | interaction score [27]: -0.625 | interaction score [28]: 0.0276 | interaction score [29]: -0.305 | interaction score [30]: 1.39 | interaction score [31]: -1.43 | interaction score [32]: -1.67 | interaction score [33]: -0.429 | interaction score [34]: 1.26 | interaction score [35]: -1.58 | interaction score [36]: -0.873 | interaction score [37]: -0.611 | interaction score [38]: -0.0619 | interaction score [39]: -1.34 | interaction score [40]: -0.843 | interaction score [41]: 1.52 | interaction score [42]: 0.607 | interaction score [43]: 0.747
